We go through nine molecules from US20230220042A1 (SHANGHAI JIAO TONG UNIVERSITY SCHOOL OF MEDICINE, published 2023).

The labels stand for the following.
B1: anti-human OX40 IgG2 antibody Mut_18 (P233G/S267E) (antibody)
heavy: QVQLQESGPGLVKPSGTLSLTCAVSGGSISSSIWWSWVRQPPGKGLEWIGEIHHSGNTNCNPSLKSRVTISIDKSKNQFSLKLTSVTAADTAVYYCARAGTGTTLDYWGQGTLVTVSSASTKGPSVFPLAPCSRSTSESTAALGCLVKDYFPEPVTVSWNSGALTSGVHTFPAVLQSSGLYSLSSVVTVPSSNFGTQTYTCNVDHKPSNTKVDKTVERKCCVECPPCPAPGVAGPSVFLFPPKPKDTLMISRTPEVTCVVVDVEHEDPEVQFNWYVDGVEVHNAKTKPREEQFNSTFRVVSVLTVVHQDWLNGKEYKCKVSNKGLPAPIEKTISKTKGQPREPQVYTLPPSREEMTKNQVSLTCLVKGFYPSDIAVEWESNGQPENNYKTTPPMLDSDGSFFLYSKLTVDKSRWQQGNVFSCSVMHEALHNHYTQKSLSLSPGK
light: EIVLTQSPGTLSLSPGERATLSCRASQSVSGDYLAWYQQKLGQAPRLLIYGASIRATGIPDRFSGSGSGTDFTLTISKLEPEDFAVYYCQQYGSSPLTFGGGTKVEIKRTVAAPSVFIFPPSDEQLKSGTASVVCLLNNFYPREAKVQWKVDNALQSGNSQESVTEQDSKDSTYSLSSTLTLSKADYEKHKVYACEVTHQGLSSPVTKSFNRGEC
notes: Substitutions in Eu numbering; entries include an unstated signal peptide
B2: anti-human OX40 IgG2 antibody Mut_24 (V266L/S267E/H268S/E269G/P271T) (antibody, name in EU numbering)
heavy: B1 heavy with G231P, V263L, H265S, E266G, P268T
light: B1 light
notes: as for B1
B3: anti-human OX40 IgG2 antibody Mut_19 (V266L/S267E/H268S/E269V/P271C) (antibody, name in EU numbering)
heavy: B1 heavy with G231P, V263L, H265S, E266V, P268C
light: B1 light
notes: as for B1
B4: anti-human OX40 IgG2 antibody Mut_21 (S267V/S298G/L328W) (antibody, name in EU numbering)
heavy: B1 heavy with G231P, E264V, S295G, L325W
light: B1 light
notes: as for B1
B5: anti-human OX40 IgG2 antibody Mut_22 (V266L/S267M/H268E/P271Q) (antibody, name in EU numbering)
heavy: B1 heavy with G231P, V263L, E264M, H265E, P268Q
light: B1 light
notes: as for B1
B6: anti-human OX40 IgG2 antibody Mut_25 (V234Q/V266L/S267D/H268D/E269D/P271Q) (antibody)
heavy: B1 heavy with G231P, V232Q, V263L, E264D, H265D, E266D, P268Q
light: B1 light
notes: as for B1
B7: anti-human OX40 IgG2 antibody Mut_27 (V266L/S267E/H268S/P271V) (antibody, name in EU numbering)
heavy: B1 heavy with G231P, V263L, H265S, P268V
light: B1 light
notes: as for B1
B8: anti-human OX40 IgG2 antibody Mut_20 (V266L/S267E/H268S/E269A/P271C) (antibody, name in EU numbering)
heavy: B1 heavy with G231P, V263L, H265S, E266A, P268C
light: B1 light
notes: as for B1
B9: anti-human OX40 IgG2 antibody Mut_23 (V266L/S267E/E269K/P271G) (antibody, name in EU numbering)
heavy: B1 heavy with G231P, V263L, E266K, P268G
light: B1 light
notes: as for B1

Residue numbers refer to the chain shown, from its start. Numbers in names are those of the source.

T5 sequence (P08637 17-208): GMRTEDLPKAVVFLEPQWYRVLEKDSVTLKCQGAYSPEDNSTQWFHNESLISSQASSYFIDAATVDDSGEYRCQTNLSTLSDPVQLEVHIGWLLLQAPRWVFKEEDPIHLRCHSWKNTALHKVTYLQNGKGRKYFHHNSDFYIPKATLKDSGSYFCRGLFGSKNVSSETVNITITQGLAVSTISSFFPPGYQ

One assay has as its target T1, FcγRIIB (human, UniProt P31994 43-217, biotin-labeled).
T1 construct: extracellular domain; Bought protein; also called CD32b
T1 sequence (looked up): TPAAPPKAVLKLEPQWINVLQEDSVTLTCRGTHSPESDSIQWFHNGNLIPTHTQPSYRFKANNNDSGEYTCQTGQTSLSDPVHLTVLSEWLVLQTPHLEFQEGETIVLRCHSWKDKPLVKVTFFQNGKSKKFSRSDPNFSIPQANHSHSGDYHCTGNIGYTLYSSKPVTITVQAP
Description: ELISA, coated antibody, biotin-FcγR.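 On Absorbance value: antibody coated at 2 µg/mL at 100 µL per well.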 In general terms: In an ELISA, binding on a coated surface is turned into a signal by an enzyme label.
As for B1, the Absorbance value turned out to be 0.78 A650, the “Increased factor of RIIB binding compared with wild-type IgG2” value (“Increased factor of RIIB binding” for short) was determined as 10.4 fold and the “Relative binding affinity RIIB/G1” value is 1.04 ratio.

In the case of B2, the Absorbance value came out at 1 A650, the “Increased factor of RIIB binding” value was 13.3 fold and the “Relative binding affinity RIIB/G1” value came out at 1.32 ratio.

Consider B3, for which the Absorbance value is 0.82 A650, the “Increased factor of RIIB binding” value came to 11 fold and the “Relative binding affinity RIIB/G1” value is 1.09 ratio.

B4: the Absorbance value came to 0.32 A650, the “Increased factor of RIIB binding” value was determined as 4.23 fold and the “Relative binding affinity RIIB/G1” value was 0.42 ratio.

Regarding B5, the Absorbance value turned out to be 0.93 A650, the “Increased factor of RIIB binding” value was found to be 12.3 fold and the “Relative binding affinity RIIB/G1” value was 1.22 ratio.

With B6, the Absorbance value amounted to 0.86 A650, the “Increased factor of RIIB binding” value came out at 11.5 fold and the “Relative binding affinity RIIB/G1” value came out at 1.14 ratio.

For the molecule B7, the Absorbance value is 0.7 A650, the “Increased factor of RIIB binding” value was found to be 9.29 fold and the “Relative binding affinity RIIB/G1” value came to 0.92 ratio.

As for B8, the Absorbance value came to 1.13 A650, the “Increased factor of RIIB binding” value came out at 15.1 fold and the “Relative binding affinity RIIB/G1” value turned out to be 1.5 ratio.

Take B9: the Absorbance value amounted to 0.97 A650, the “Increased factor of RIIB binding” value was 13 fold and the “Relative binding affinity RIIB/G1” value amounted to 1.29 ratio.

The target of another assay is T2, FcγRIIA^131R (human, UniProt P12318 34-217, biotin-labeled).
T2 construct: extracellular domain; Bought protein; also called RIIAR
T2 sequence (looked up): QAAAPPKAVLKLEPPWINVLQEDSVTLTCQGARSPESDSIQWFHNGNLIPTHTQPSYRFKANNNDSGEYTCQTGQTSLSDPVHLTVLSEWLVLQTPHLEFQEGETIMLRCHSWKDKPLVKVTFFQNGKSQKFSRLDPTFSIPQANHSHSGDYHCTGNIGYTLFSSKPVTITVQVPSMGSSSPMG
Description: ELISA, coated antibody, biotin-FcγR.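 On Absorbance value: antibody coated at 2 µg/mL at 100 µL per well.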
With B1, the Absorbance value turned out to be 0.26 A650 and the “Relative binding affinity RIIAR/G1” value was 1 ratio.

For B2, the Absorbance value was 0.35 A650 and the “Relative binding affinity RIIAR/G1” value was 1.35 ratio.

Regarding B3, the Absorbance value was 0.28 A650 and the “Relative binding affinity RIIAR/G1” value is 1.08 ratio.

With B4, the Absorbance value was found to be 0.11 A650 and the “Relative binding affinity RIIAR/G1” value was 0.41 ratio.

With B5, the Absorbance value was determined as 0.31 A650 and the “Relative binding affinity RIIAR/G1” value came to 1.17 ratio.

B6: the Absorbance value worked out at 0.3 A650 and the “Relative binding affinity RIIAR/G1” value came out at 1.13 ratio.

For B7, the Absorbance value was determined as 0.28 A650 and the “Relative binding affinity RIIAR/G1” value is 1.06 ratio.

B8: the Absorbance value was 0.46 A650 and the “Relative binding affinity RIIAR/G1” value was found to be 1.76 ratio.

For the molecule B9, the Absorbance value worked out at 0.38 A650 and the “Relative binding affinity RIIAR/G1” value amounted to 1.44 ratio.

A further assay deals with T3, FcγRIIIA^158V (human, UniProt P08637 17-208, biotin-labeled).
T3 construct: extracellular domain; Bought protein; also called RIIIAV; CD16a 158V
T3 sequence (P08637 17-208 F176V): as the sequence (P08637 17-208) above, with F160V counted along it
Description: ELISA, coated antibody, biotin-FcγR.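 On Absorbance value: antibody coated at 2 µg/mL at 100 µL per well.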
As for B1, the Absorbance value was determined as 0.08 A650 and the “Relative binding affinity RIIIAV/G1” value was 0.09 ratio.

For B2, the Absorbance value came out at 0.08 A650 and the “Relative binding affinity RIIIAV/G1” value turned out to be 0.08 ratio.

On to B3, for which the Absorbance value was found to be 0.07 A650 and the “Relative binding affinity RIIIAV/G1” value came out at 0.07 ratio.

As for B4, the Absorbance value is 0.06 A650 and the “Relative binding affinity RIIIAV/G1” value amounted to 0.06 ratio.

As for B5, the Absorbance value came to 0.07 A650 and the “Relative binding affinity RIIIAV/G1” value turned out to be 0.07 ratio.

On to B6, for which the Absorbance value came to 0.05 A650 and the “Relative binding affinity RIIIAV/G1” value turned out to be 0.06 ratio.

Consider B7, for which the Absorbance value was determined as 0.1 A650 and the “Relative binding affinity RIIIAV/G1” value was determined as 0.11 ratio.

With B8, the Absorbance value came to 0.05 A650 and the “Relative binding affinity RIIIAV/G1” value came to 0.06 ratio.

In the case of B9, the Absorbance value came to 0.06 A650 and the “Relative binding affinity RIIIAV/G1” value was 0.06 ratio.

In another assay the target is T4, FcγRI (human, UniProt P12314 16-292, biotin-labeled).
T4 construct: extracellular domain; Bought protein; also called CD64
T4 sequence (P12314 16-292): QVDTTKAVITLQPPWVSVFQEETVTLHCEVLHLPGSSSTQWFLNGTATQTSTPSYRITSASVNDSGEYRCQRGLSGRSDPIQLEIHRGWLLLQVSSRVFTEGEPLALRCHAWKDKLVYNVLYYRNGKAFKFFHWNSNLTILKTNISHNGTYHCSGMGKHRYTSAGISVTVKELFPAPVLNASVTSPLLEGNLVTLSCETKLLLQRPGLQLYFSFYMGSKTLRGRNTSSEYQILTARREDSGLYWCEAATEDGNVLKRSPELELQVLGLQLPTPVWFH
Nature of the assay: ELISA, coated antibody, biotin-FcγR.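 On Absorbance value: antibody coated at 2 µg/mL at 100 µL per well.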
As for B1, the Absorbance value is 0.14 A650 and the “Relative binding affinity RI/G1” value is 0.05 ratio.

With B2, the Absorbance value came out at 0.12 A650 and the “Relative binding affinity RI/G1” value came to 0.05 ratio.

Consider B3, for which the Absorbance value was 0.11 A650 and the “Relative binding affinity RI/G1” value is 0.04 ratio.

As for B4, the Absorbance value was 0.16 A650 and the “Relative binding affinity RI/G1” value worked out at 0.06 ratio.

On to B5, for which the Absorbance value was determined as 0.12 A650 and the “Relative binding affinity RI/G1” value came out at 0.05 ratio.

B6: the Absorbance value was 0.12 A650 and the “Relative binding affinity RI/G1” value came out at 0.05 ratio.

Consider B7, for which the Absorbance value is 0.18 A650 and the “Relative binding affinity RI/G1” value turned out to be 0.07 ratio.

As to B8, the Absorbance value was found to be 0.12 A650 and the “Relative binding affinity RI/G1” value stood at 0.05 ratio.

Consider B9, for which the Absorbance value was 0.11 A650 and the “Relative binding affinity RI/G1” value is 0.04 ratio.

A further assay addresses T5, FcγRIIIA^158F (human, UniProt P08637 17-208, biotin-labeled).
T5 construct: extracellular domain; Bought protein; also called RIIIAF
Description: ELISA, coated antibody, biotin-FcγR.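 On Absorbance value: antibody coated at 2 µg/mL at 100 µL per well.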
With B1, the Absorbance value came to 0.09 A650 and the “Relative binding affinity RIIIAF/G1” value came out at 0.47 ratio.

On to B2, for which the Absorbance value was 0.08 A650 and the “Relative binding affinity RIIIAF/G1” value came to 0.42 ratio.

As for B3, the Absorbance value was 0.07 A650 and the “Relative binding affinity RIIIAF/G1” value came to 0.38 ratio.

For the molecule B4, the Absorbance value worked out at 0.06 A650 and the “Relative binding affinity RIIIAF/G1” value came out at 0.31 ratio.

For B5, the Absorbance value is 0.06 A650 and the “Relative binding affinity RIIIAF/G1” value was found to be 0.33 ratio.

Take B6: the Absorbance value came to 0.07 A650 and the “Relative binding affinity RIIIAF/G1” value worked out at 0.36 ratio.

Turning to B7, the Absorbance value turned out to be 0.09 A650 and the “Relative binding affinity RIIIAF/G1” value was determined as 0.49 ratio.

Regarding B8, the Absorbance value is 0.06 A650 and the “Relative binding affinity RIIIAF/G1” value was determined as 0.31 ratio.

On to B9, for which the Absorbance value was 0.07 A650 and the “Relative binding affinity RIIIAF/G1” value was found to be 0.35 ratio.

Another assay deals with T6, FcγRIIA^131H (human, UniProt P12318 34-217, biotin-labeled).
T6 construct: extracellular domain; Bought protein; also called RIIAH
T6 sequence (looked up): T2 sequence (looked up) with R134H
Description: ELISA, coated antibody, biotin-FcγR.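 On Absorbance value: antibody coated at 2 µg/mL at 100 µL per well.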
Regarding B1, the Absorbance value came out at 0.38 A650 and the “Relative binding affinity RIIAH/G1” value stood at 0.67 ratio.

Regarding B2, the Absorbance value came to 0.48 A650 and the “Relative binding affinity RIIAH/G1” value was 0.84 ratio.

With B3, the Absorbance value is 0.33 A650 and the “Relative binding affinity RIIAH/G1” value came to 0.58 ratio.

Turning to B4, the Absorbance value is 0.09 A650 and the “Relative binding affinity RIIAH/G1” value turned out to be 0.16 ratio.

For B5, the Absorbance value is 0.33 A650 and the “Relative binding affinity RIIAH/G1” value was found to be 0.57 ratio.

Turning to B6, the Absorbance value came to 0.06 A650 and the “Relative binding affinity RIIAH/G1” value was determined as 0.1 ratio.

Consider B7, for which the Absorbance value is 0.48 A650 and the “Relative binding affinity RIIAH/G1” value is 0.84 ratio.

As for B8, the Absorbance value came to 0.48 A650 and the “Relative binding affinity RIIAH/G1” value came out at 0.85 ratio.

B9: the Absorbance value amounted to 0.43 A650 and the “Relative binding affinity RIIAH/G1” value came to 0.75 ratio.

For another assay, the target named is T1, FcγRIIB. Description: ELISA; relative affinity to FcγRIIB over that to FcγRIIA131R.
As to B1, the RIIB/RIIAR stood at 1.03 ratio.

Consider B2, for which the RIIB/RIIAR came out at 0.98 ratio.

For the molecule B3, the RIIB/RIIAR is 1 ratio.

In the case of B4, the RIIB/RIIAR came out at 1.03 ratio.

For the molecule B5, the RIIB/RIIAR was 1.05 ratio.

For the molecule B6, the RIIB/RIIAR amounted to 1.01 ratio.

With B7, the RIIB/RIIAR came to 0.87 ratio.

Consider B8, for which the RIIB/RIIAR was determined as 0.85 ratio.

Regarding B9, the RIIB/RIIAR worked out at 0.9 ratio.
